Data from paper PMC2408619.

Target: T1, Bordetella bacteriophage major tropism determinant variant Mtd-P1 (Bordetella bacteriophage BPP-1), Q775D6
T1 chain: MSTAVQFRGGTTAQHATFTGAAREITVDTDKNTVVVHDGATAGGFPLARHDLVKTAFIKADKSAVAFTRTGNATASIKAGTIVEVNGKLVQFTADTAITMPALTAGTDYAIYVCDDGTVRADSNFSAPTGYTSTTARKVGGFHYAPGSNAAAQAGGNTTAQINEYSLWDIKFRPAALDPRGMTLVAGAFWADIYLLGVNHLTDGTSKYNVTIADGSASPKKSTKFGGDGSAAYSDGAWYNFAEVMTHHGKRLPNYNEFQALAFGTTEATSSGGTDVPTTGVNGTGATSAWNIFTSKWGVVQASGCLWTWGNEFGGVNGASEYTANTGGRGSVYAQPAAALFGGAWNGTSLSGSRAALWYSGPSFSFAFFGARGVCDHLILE
Assay: crystal structure; Mtd-P1·Prn-E complex formed with ~1.6-fold molar excess of Mtd-P1 trimers over His-tagged Prn-E, isolated by Ni2+-chelation and Superdex 200; crystals at 25 °C in 2 M NaCl, 100 mM Tris pH 8.5, 200 mM Li2SO4; 3.16 Å
Settings: remark: other sources report otherwise

B1: Bordetella bacteriophage major tropism determinant variant Mtd-P1, Q775D6 1-381 (natural protein)
chain: MSTAVQFRGGTTAQHATFTGAAREITVDTDKNTVVVHDGATAGGFPLARHDLVKTAFIKADKSAVAFTRTGNATASIKAGTIVEVNGKLVQFTADTAITMPALTAGTDYAIYVCDDGTVRADSNFSAPTGYTSTTARKVGGFHYAPGSNAAAQAGGNTTAQINEYSLWDIKFRPAALDPRGMTLVAGAFWADIYLLGVNHLTDGTSKYNVTIADGSASPKKSTKFGGDGSAAYSDGAWYNFAEVMTHHGKRLPNYNEFQALAFGTTEATSSGGTDVPTTGVNGTGATSAWNIFTSKWGVVQASGCLWTWGNEFGGVNGASEYTANTGGRGSVYAQPAAALFGGAWNGTSLSGSRAALWYSGPSFSFAFFGARGVCDHLILE
stoichiometry N: 3
